Results from publication PMC6344896, “HuR biological function involves RRM3-mediated dimerization and RNA binding by all three RRMs”.

Assays:
[1] = target: T1, HuR RRM3 (human, UniProt Q15717 243-326); test: ITC; n=1.1; ITC: 50 mM sodium phosphate pH 7.0, 200 mM NaCl, 2 mM beta-mercaptoethanol, 298 K; NMR: 20 mM sodium phosphate pH 7.0, 200 mM NaCl, 5 mM DTT, 1 mM EDTA, 298 K; conditions: protein: recombinant; tags: untagged (His6-GST cleaved with TEV)
[2] = target: T1, HuR RRM3; test: ITC; 400 uM RNA into 20 uM RRM3; ITC: 50 mM sodium phosphate pH 7.0, 200 mM NaCl, 2 mM beta-mercaptoethanol, 298 K; NMR: 20 mM sodium phosphate pH 7.0, 200 mM NaCl, 5 mM DTT, 1 mM EDTA, 298 K; conditions: protein: recombinant; tags: untagged (His6-GST cleaved with TEV)
[3] = target: T1, HuR RRM3; test: NMR; changes comparable with U6; ITC: 50 mM sodium phosphate pH 7.0, 200 mM NaCl, 2 mM beta-mercaptoethanol, 298 K; NMR: 20 mM sodium phosphate pH 7.0, 200 mM NaCl, 5 mM DTT, 1 mM EDTA, 298 K; conditions: protein: recombinant; tags: untagged (His6-GST cleaved with TEV)
[4] = target: HuR F279A (human, UniProt Q15717 1-326, F279A); test: ITC; n=1.0; ITC: 50 mM sodium phosphate pH 7.0, 200 mM NaCl, 2 mM beta-mercaptoethanol, 298 K; NMR: 20 mM sodium phosphate pH 7.0, 200 mM NaCl, 5 mM DTT, 1 mM EDTA, 298 K; conditions: protein: recombinant; tags: untagged (tag cleaved)
[5] = target: HuR F247A/Y249A (human, UniProt Q15717 1-326, F247A;Y249A); test: ITC; n=0.8; ITC: 50 mM sodium phosphate pH 7.0, 200 mM NaCl, 2 mM beta-mercaptoethanol, 298 K; NMR: 20 mM sodium phosphate pH 7.0, 200 mM NaCl, 5 mM DTT, 1 mM EDTA, 298 K; conditions: protein: recombinant; tags: untagged (tag cleaved)
[6] = target: HuR WT (human, UniProt Q15717 1-326); test: ITC; n=0.7; ITC: 50 mM sodium phosphate pH 7.0, 200 mM NaCl, 2 mM beta-mercaptoethanol, 298 K; NMR: 20 mM sodium phosphate pH 7.0, 200 mM NaCl, 5 mM DTT, 1 mM EDTA, 298 K; conditions: protein: recombinant; tags: untagged (His6-MBP cleaved)
[7] = target: HuR F287A/F289A (human, UniProt Q15717 1-326, F287A;F289A); test: as above; conditions: protein: recombinant; tags: untagged (tag cleaved)
[8] = target: HuR GGS (human, UniProt Q15717 1-185+=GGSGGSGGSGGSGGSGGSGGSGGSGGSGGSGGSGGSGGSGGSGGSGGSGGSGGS+240-326, internal_change); test: ITC; n=0.9; ITC: 50 mM sodium phosphate pH 7.0, 200 mM NaCl, 2 mM beta-mercaptoethanol, 298 K; NMR: 20 mM sodium phosphate pH 7.0, 200 mM NaCl, 5 mM DTT, 1 mM EDTA, 298 K; conditions: protein: recombinant; tags: pETM11 His6, cleaved
[9] = target: HuR W261E (human, UniProt Q15717 1-326, W261E); test: as above; conditions: protein: recombinant; tags: untagged (tag cleaved)
[10] = target: T1, HuR RRM3; test: ITC; 400 uM RNA into 20 uM RRM3; n=0.6; ITC: 50 mM sodium phosphate pH 7.0, 200 mM NaCl, 2 mM beta-mercaptoethanol, 298 K; NMR: 20 mM sodium phosphate pH 7.0, 200 mM NaCl, 5 mM DTT, 1 mM EDTA, 298 K; conditions: protein: recombinant; tags: untagged (His6-GST cleaved with TEV)
[11] = target: HuR RRM3 F247A/Y249A (human, UniProt Q15717 243-326, F247A;Y249A); test: ITC; ITC: 50 mM sodium phosphate pH 7.0, 200 mM NaCl, 2 mM beta-mercaptoethanol, 298 K; NMR: 20 mM sodium phosphate pH 7.0, 200 mM NaCl, 5 mM DTT, 1 mM EDTA, 298 K; conditions: protein: recombinant; tags: untagged (His6-GST cleaved)
[12] = target: T1, HuR RRM3; test: ITC; n=0.8; ITC: 50 mM sodium phosphate pH 7.0, 200 mM NaCl, 2 mM beta-mercaptoethanol, 298 K; NMR: 20 mM sodium phosphate pH 7.0, 200 mM NaCl, 5 mM DTT, 1 mM EDTA, 298 K; conditions: protein: recombinant; tags: untagged (His6-GST cleaved with TEV)
[13] = target: HuR RRM3 F279A (human, UniProt Q15717 243-326, F279A); test: ITC; n=0.6; ITC: 50 mM sodium phosphate pH 7.0, 200 mM NaCl, 2 mM beta-mercaptoethanol, 298 K; NMR: 20 mM sodium phosphate pH 7.0, 200 mM NaCl, 5 mM DTT, 1 mM EDTA, 298 K; conditions: protein: recombinant; tags: untagged (His6-GST cleaved)
[14] = target: T1, HuR RRM3; test: ITC; ITC: 50 mM sodium phosphate pH 7.0, 200 mM NaCl, 2 mM beta-mercaptoethanol, 298 K; NMR: 20 mM sodium phosphate pH 7.0, 200 mM NaCl, 5 mM DTT, 1 mM EDTA, 298 K; conditions: protein: recombinant; tags: untagged (His6-GST cleaved with TEV)
[15] = target: T1, HuR RRM3; test: NMR; 1:0.25 and 1:1.25; ITC: 50 mM sodium phosphate pH 7.0, 200 mM NaCl, 2 mM beta-mercaptoethanol, 298 K; NMR: 20 mM sodium phosphate pH 7.0, 200 mM NaCl, 5 mM DTT, 1 mM EDTA, 298 K; conditions: protein: recombinant; tags: untagged (His6-GST cleaved with TEV)

T1 sequence (Q15717 243-326): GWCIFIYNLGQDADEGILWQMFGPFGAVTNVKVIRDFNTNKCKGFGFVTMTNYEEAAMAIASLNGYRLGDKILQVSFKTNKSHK
Sequence of HuR W261E (Q15717 whole entry W261E): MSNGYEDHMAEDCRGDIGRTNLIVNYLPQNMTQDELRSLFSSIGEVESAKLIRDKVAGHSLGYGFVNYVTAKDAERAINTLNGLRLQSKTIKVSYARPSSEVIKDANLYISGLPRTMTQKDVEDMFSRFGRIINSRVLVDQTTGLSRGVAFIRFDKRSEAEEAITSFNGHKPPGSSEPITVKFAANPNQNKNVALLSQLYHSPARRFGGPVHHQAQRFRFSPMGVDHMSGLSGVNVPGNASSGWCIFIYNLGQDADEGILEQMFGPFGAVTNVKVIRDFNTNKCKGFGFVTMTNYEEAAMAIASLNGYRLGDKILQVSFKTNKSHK
Sequence of HuR RRM3 F279A (Q15717 243-326 F279A): as the sequence (Q15717 243-326) above, with F37A counted along it
Sequence of HuR F287A/F289A (Q15717 whole entry F287A/F289A): as the sequence (Q15717 whole entry W261E) above, with E261W, F287A, F289A counted along it
Sequence of HuR RRM3 F247A/Y249A (Q15717 243-326 F247A/Y249A): as the sequence (Q15717 243-326) above, with F5A, Y7A counted along it
Sequence of HuR F279A (Q15717 whole entry F279A): as the sequence (Q15717 whole entry W261E) above, with E261W, F279A counted along it
Sequence of HuR GGS (Q15717 other isoform, or with tags, fused parts or gaps): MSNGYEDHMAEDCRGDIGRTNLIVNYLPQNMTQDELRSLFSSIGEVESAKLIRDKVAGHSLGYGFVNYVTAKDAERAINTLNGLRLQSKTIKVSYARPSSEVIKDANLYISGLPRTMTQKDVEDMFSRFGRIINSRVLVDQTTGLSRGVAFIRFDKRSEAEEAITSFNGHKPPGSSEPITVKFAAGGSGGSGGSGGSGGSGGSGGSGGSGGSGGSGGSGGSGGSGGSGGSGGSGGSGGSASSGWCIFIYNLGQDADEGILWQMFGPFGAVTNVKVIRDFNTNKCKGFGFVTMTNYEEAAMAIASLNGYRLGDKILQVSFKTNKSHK
Sequence of HuR WT (Q15717 whole entry): as the sequence (Q15717 whole entry W261E) above, with E261W counted along it
Sequence of HuR F247A/Y249A (Q15717 whole entry F247A/Y249A): as the sequence (Q15717 whole entry W261E) above, with F247A, Y249A, E261W counted along it

For UUUGUU (ssRNA) [GU6], the Kd [1] was 100 ± 18.2 µM.

With UUUUU (ssRNA) [U5] the Kd [2] was 34 µM.

UUUUUUUUU (ssRNA) [U9]: binds [3].

AUUUUUAUUUUAUUUUU (ssRNA) [AU17] showed a Kd [4] of 0.0288 ± 0.0044 µM, a Kd [5] of 0.351 ± 0.0199 µM and a Kd [6] of 0.04 ± 0.0082 µM. The Kd [7] was 0.194 ± 0.0215 µM, the Kd [8] was 0.0336 ± 0.0027 µM and the Kd [9] was 0.041 ± 0.0048 µM.

In the case of UUUUUU (ssRNA) [U6], the Kd [10] is reported as 15.8 ± 1.5 µM, the binding result [11] is reported as “no binding” and the Kd [12] is reported as 19.3 ± 0.3 µM. It also gave a Kd [13] of 44.6 ± 3.5 µM.

Binder UAUUUA (ssRNA) [AU6tnf] has a Kd [14] of 156 ± 32.8 µM.

UUUAUU (ssRNA) [AU6] showed a Kd [12] of 47 ± 3.6 µM.

GAGCAC (ssRNA) [GC control]: no binding [15].
